Assay results taken from publication PMC12561426, “Dissecting the Interplay Between NRF2 and BACH1 at CsMBEs”.

Experiments:
[1] = biological target: T1, NRF2DBD (UniProt Q16236 451-567); assay: EMSA; apparent; homodimer; 150 mM NaCl, 50 mM HEPES pH 7.9, 10% glycerol, 1 mM TCEP, 1 mM DTT, 2 mM MgCl2; 3 nM DNA; TEV and 3C 50 ug/mL each, 4 h 25 °C; competition then O/N 4 °C; gels 4 °C in 1X TBE; conditions: protein: recombinant; tags: C-terminal 3C-6xHis; chain copies: 2; label: 5' fluorescein on forward strand; blunt
T1 sequence: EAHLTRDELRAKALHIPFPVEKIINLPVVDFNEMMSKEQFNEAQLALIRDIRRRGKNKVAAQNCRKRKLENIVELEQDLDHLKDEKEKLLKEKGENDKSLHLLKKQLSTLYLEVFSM

[2] = biological target: sMafGDBD (UniProt O15525 1-162); assay: as above; conditions: protein: recombinant; tags: N-terminal 6xHis-TEV; chain copies: 2; label: 5' fluorescein on forward strand; blunt
[3] = biological target: BACH1DBD (UniProt O14867 511-627); assay: EMSA; apparent; homodimer concentration; 150 mM NaCl, 50 mM HEPES pH 7.9, 10% glycerol, 1 mM TCEP, 1 mM DTT, 2 mM MgCl2; 3 nM DNA; TEV and 3C 50 ug/mL each, 4 h 25 °C; competition then O/N 4 °C; gels 4 °C in 1X TBE; conditions: protein: recombinant; tags: C-terminal 3C-6xHis; chain copies: 2; label: 5' fluorescein on forward strand; blunt
BACH1DBD, sequence (O14867 511-627): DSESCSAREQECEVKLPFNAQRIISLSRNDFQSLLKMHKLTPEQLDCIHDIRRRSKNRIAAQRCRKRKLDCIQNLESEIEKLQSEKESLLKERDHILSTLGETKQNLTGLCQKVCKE

B1: HMOX1 CsMBE 30-mer (dsDNA)
DNA 1: CTCGGGACCGTGACTCAGCAGGAAAAACAC
DNA 2: GTGTTTTTCCTGCTGAGTCACGGTCCCGAG
Kd [1]: ~590 nM
Kd [2]: ~203 nM
Kd [3]: ~802 nM
